The binders below were run against PDGFR-alpha on human osteosarcoma MG-63 cells (human, UniProt P16234 24-1089) (assay: cell-based or functional assay).
Chain of PDGFR-alpha on human osteosarcoma MG-63 cells (P16234 24-1089): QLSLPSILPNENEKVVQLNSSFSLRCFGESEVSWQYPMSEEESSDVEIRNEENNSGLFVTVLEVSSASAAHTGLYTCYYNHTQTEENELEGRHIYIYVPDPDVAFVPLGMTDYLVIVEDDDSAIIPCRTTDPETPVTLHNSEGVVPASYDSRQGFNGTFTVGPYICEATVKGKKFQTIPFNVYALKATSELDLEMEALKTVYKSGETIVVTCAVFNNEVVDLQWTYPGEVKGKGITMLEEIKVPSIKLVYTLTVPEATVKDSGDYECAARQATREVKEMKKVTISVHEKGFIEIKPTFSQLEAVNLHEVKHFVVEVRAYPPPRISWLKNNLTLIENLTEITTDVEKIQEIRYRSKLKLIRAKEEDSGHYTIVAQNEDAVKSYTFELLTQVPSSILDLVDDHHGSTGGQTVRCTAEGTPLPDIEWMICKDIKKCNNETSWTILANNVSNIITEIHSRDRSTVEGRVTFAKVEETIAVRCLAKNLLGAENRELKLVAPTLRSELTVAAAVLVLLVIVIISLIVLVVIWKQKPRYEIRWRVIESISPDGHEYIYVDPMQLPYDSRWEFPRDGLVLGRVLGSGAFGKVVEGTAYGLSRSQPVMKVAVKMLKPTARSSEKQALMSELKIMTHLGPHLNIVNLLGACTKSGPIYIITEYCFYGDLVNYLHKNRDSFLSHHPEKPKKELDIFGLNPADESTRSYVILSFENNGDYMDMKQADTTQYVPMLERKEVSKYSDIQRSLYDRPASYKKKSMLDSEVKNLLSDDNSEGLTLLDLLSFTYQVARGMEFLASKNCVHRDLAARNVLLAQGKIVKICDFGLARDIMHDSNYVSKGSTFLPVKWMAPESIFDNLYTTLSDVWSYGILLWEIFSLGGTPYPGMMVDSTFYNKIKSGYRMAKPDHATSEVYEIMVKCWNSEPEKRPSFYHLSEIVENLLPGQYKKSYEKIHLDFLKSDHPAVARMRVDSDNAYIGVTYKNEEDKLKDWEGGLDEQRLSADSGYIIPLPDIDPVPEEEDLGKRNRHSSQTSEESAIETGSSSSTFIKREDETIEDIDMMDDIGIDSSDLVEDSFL

Proliferation Assay: IC50 ng/ml (1-6-06) [ng/mL]	pTyr Assay: % Inhibition @ 2 µg/ml [%]	Binder
> 10000	74	4.16.2 (antibody, V domains shown) VH: not shown VL: DIQMTQSPSSLSASVGDRVTITCRASQVIANYLAWYQQKPGKVPKLLIYAASTLQSGVPSRFSGSGSGTDFTLTISSLQPEDVATYYCHTYKSAPWTFGQGTKVEIK
> 10000	77	5.1.1.1 (antibody, V domains shown) VH: QVQLVQSGAEVKKPGASVKVSCKASGYTFTSYDINWVRQATGQGLEWMGWMNPNSGNTGYAQQFQGRVTMTRNTSITTAYMELSSLRSEDTAVYYCAREEYSSSLFDSWGQGTLVTVSS VL: DIQMTQSPSSLSASVGDRVTITCRASQGIRNNLGWFQQKPGKAPKRLIYAASSLQSGVPSRFSGSGSGTKFTLTISSLQPEDFATYFCLQHNRYPLTFGGGTKVEIK
4600	92	3.818.4 (antibody, V domains shown) VH: EVQLVESGGGLVQPGGSLRLSCAASGFTFSSYSMNWVRQAPGKGLEWVSYISGSSTTMYYADSVKGRFTISRDNAKNSLYLQMNSLRDEDTAVYYCARLRHFDWSYAFDIWGQGTMVTVSS VL: DIQMTQSPSSVSTSVGDRVTITCRASQGISSWLAWYQQRPGKAPKLLIYAASSLQSGVPSRFSGSGSGTDFTLTISSLQPEDFATYFCQQATSFPFTFGPGTKVGIK
	85	3.457.3.1 (antibody, V domains shown) VH: QVQLVESGGGVVQPGRSLRLSCAASGFTFSSYGMHWVRQAPGKGLEWVAVIWYDRSNKYYADSVKGRFTISRDNSKNTLYLQMNSLRAEDTAVYYCAGGRSRGAFDFWGQGTLVTVSS VL: DIQMTQSPSSVSASVGDRVTITCRASQGISSWLAWYQQKAGKAPKLLIYSASSLQSGVPSRFSGSGSGTDFTLTISSLQPEDFATYYCQRTNSFPRTFGQGTKVEIK
	61	3.472.1.1 (antibody, V domains shown) VH: QVQLVESGGGVVQPGRSLRLSCAASGFTFSSYGMHWVRQAPGKGLEWVAVIWYDRSNKYYVDSVKGRFTISRDNSKNTLYLQMNSLRAEDTAVYYCAGGRSRGAFDYWGQGTLVTVSS VL: DIQMTQSPSSVSASVGDRVTITCRASQDISSWLAWYQQKPGKAPKLLIFAASSLQSGVPSRFSGSGSGTDFTLTISSLQPEDFATYYCQRTSSFPRTFGQGTKVEIK

Second part, the binder before the results:

Binder	Proliferation Assay: IC50 ng/ml (1-6-06) [ng/mL]	pTyr Assay: % Inhibition @ 2 µg/ml [%]
2.1576.1.2 (antibody, V domains shown) VH: EVQLVESGGGLVQPGGSLRLSCAASGFTFSSYWMSWVRQAPGKGLEWVANIKQDGSEKYYVDSVKGRFTISRDNAKNSLYLQMNSLRAEDTAVYYCARWGVFGSGSYYIPFDYWGQGTLVTVSS VL: DIQMTQSPSSLSASVGDRVTITCRASQGIRNYLAWFQQKPGKAPKSLIYAASSLQSGVPSTFSGSGSGTHFTLTISSLQPEDFASYFCQQYEIYPLTFGGGTKVEIK	> 10000	65
3.87.1.1 (antibody, V domains shown) VH: QVQLVESGGGVVQPGRSLRLSCAASGFTFSSYGMHWVRQAPGKGLEWVAVIWYDRSNKYYADSVKGRFTISRDNSKNTLYLQMNSLRAEDTAVYYCAGGRSRGAFDYWGQGTLVTVSS VL: DIQMTQSPSSVSASVGDRVTITCRASQGISSWLAWYQQKPGKAPKLLIFAASSLQSGVPSRFSGSGSGTDFTLTISSLQPEDFATYYCQRTNSFPRTFGQGTKVEIK	6240	69
3.23.3 (antibody, V domains shown) VH: QVQLVESGGGVVQPGRSLRLSCAASGFTFSRYGMHWVRQAPGKGLEWVAVIWYDGRNKYYVDSVKGRFTISRDNSKNTLYLQMNSLRAEDTAVYYCVGVGITVTGAFDYWGQGTLVTVSS VL: EIVMTQSPATLSVSPGERATLSCRASQSVRSNLAWYQQKPGQAPRLLIYGASTRVTDIPTRFSGSGSGTEFTLSISSLQSEDFAVYYCQQYNNWPRTFGQGTKVEIK	61.9	84

Source: patent US20090324601A1 (published 2009)
